Results as given in US11426447B2, “Neuregulin for the treatment of tumors of the nervous system” (LEIBNIZ-INSTITUT FUR …, priority 2016, dated 2022).

What was measured:
[1] = test system: Schwann cell differentiation markers in crushed sciatic nerves; assay: Immunoblot of sciatic nerve lysates after 3 months of treatment; format: in vivo, Nf2flox;P0-Cre;Nefh-Cre mice
Description: Immunoblotting was performed as described in (Morrison et al., 2001). The following primary antibodies were used: phospho-c-Jun (Ser73; 1:1000; Cell Signalling; 8752), anti-Nrg1 (1:250; Santa Cruz; clone C-20), anti-Erk (1:500; Cell Signalling), anti-phospho-Erk (T202/Y204; 1:500; Cell Signalling), anti-ErbB2 (1:500; Cell Signalling), anti-GAPDH (1:1000; Santa Cruz; 6C5), anti-merlin (1:500; Santa Cruz; A19). Western blot results were quantified using Gel analysis software by ImageJ. Density values were normalized to actin and appropriate controls of transfection or wild-type tissue, respectively. In case of phospho-specific detection of proteins, their acquired densities were referred to signals derived from related pan-antibodies (e.g. phospho-Erk to Erk signals).
Sciatic nerve crush injury was performed on WT and Nf2flox;P0-Cre;Nefh-Cre mutant animals as described in Example 1. The Nf2flox;P0-Cre;Nefh-Cre mutant animals were intraperitoneally injected every day with 10 μg of rhNRG1 per kg body weight (KO rhNRG1). For a control a PBS solution was systemically administered to WT animals and Nf2flox;P0-Cre;Nefh-Cre mutant animals (WT vehicle and KO vehicle). Sciatic nerve lysates were taken from animals after 3 month of treatment upon which immunochemistry was performed as described in Example 1.

[2] = test system: sciatic nerve crush injury; assay: Single-frame motion analysis (foot-base angle): functional recovery after sciatic nerve crush; format: in vivo, mice
Source text: Unilateral injuries of sciatic nerves were accomplished according to a previously described method (Bauder and Ferguson, 2012). In brief, 8 to 10 week old mice were anesthetized using 2% isoflurane in 100% oxygen. Fur was then removed from one hind limb. After an appropriate incision of the skin, the gluteal musculature was separated in order to reveal the right sciatic nerve. Using haemostatic forceps (Ultra Fine Haemostat; #13021-12; tip width 0.6 mm; Fine Science Tools; Germany), the nerve was crushed once by the application of a defined pressure for 20 s. The locking mechanism of the haemostatic forceps with a series of interlocking teeth ensured reproducibility and standardization of crush injury. Finally, both the gluteal musculature and skin incision were sutured using appropriate surgical suture material.
To evaluate locomotor function, mice were accustomed, in 3-4 trials, to beam-walking 1 week prior to surgery. In this test, the animal walks voluntarily from one end of a horizontal beam (length 1000 mm, width 40 mm) towards its home cage located at the other end of the beam. For all mice, a rear view of one walking trial was captured once prior to surgery and at different time-points after surgery with a Video camera and stored on a personal computer in Audio Video Interleaved (AVI) format. The video sequences were examined using VirtualDub 1.6.19 software.
It was tested whether rhNRG1 protein replacement can improve functional recovery of mice over a time period of 8 weeks after sciatic nerve crush.

[3] = Body weight and tolerability of systemically treated animals; format: in vivo, mice
Description: A, Schematic representation of the protocol used to assess the efficacy of rhNRG1 treatment on schwannoma growth after experimental sciatic nerve crush injury. B, Serum levels of rhNRG1 after single intraperitoneal injections of 10 μg rhNRG1 per kg body weight measured in pooled blood (n=4 animals; median). C, Body weight of animals receiving (genotype and treatment as indicated) was determined over 13 weeks.
Crush injury-induced schwannoma formation was provoked in 2-month-old mice. Subsequently, administration of rhNRG1 was performed both systemically (by intraperitoneal injection) and locally (by rhNRG1-containing absorbable collagen sponges (ACS)). Vehicle saline solution was given to control animals. In order to assess the bioavailability of intraperitoneally injected rhNRG1 (10 μg per kg body weight), rhNRG1 serum levels were evaluated. Strikingly, rhNRG1 levels reached a peak 2 days after injection (FIG. 1B). […] A significant decline in body weight at the chosen dosage was, however, not observed (FIG. 1C).

[4] = test system: ErbB2 and myelin protein zero (MPZ) expression; assay: Immunoblot of nerve tissue from Nf1flox;Postn-Cre mice; format: in vivo; details: rhNRG1 over 3 months
Source text: A, Study protocol used to assess the efficacy of systemic rhNRG1 treatment on schwannoma growth in Nf1flox;Postn-Cre animals. B, Representative longitudinal nerve section from six-month-old mutant Nf1flox;Postn-Cre mice indicating a circumscribed area of neurofibroma growth. Scale bars represent 50 μm. C, Fraction of tumor tissue within total tissue was quantified as area covered by tumor in relation to the total nerve area in investigated nerve sections. Nf1flox;Postn-Cre mutant mice receiving intraperitoneal saline injections (KO vehicle ip) were compared to mutants on rhNRG1 injections (KO rhNRG1 ip; n=6 animals per genotype; mean±SEM). D, Immunoblot of pooled tissue from at least three different animals prepared from sciatic nerves, brachial nerves, trigeminal nerves and dorsal root ganglions (DRG). Nf1flox;Postn-Cre mutant animals received either vehicle control injections (KO vehicle ip) or rhNRG1 treatment (KO rhNRG1 ip) over 3 months. Immunostaining for ErbB2, Akt, phospho-Akt (pAkt), c-Jun, Erk1/2, phospho-Erk1/2 (pErk1/2), myelin protein zero (MPZ), myelin basic protein (MBP) and GAPDH as loading control (n=3).
Immunoblotting was performed as described in (Morrison et al., 2001). […] Western blot results were quantified using Gel analysis software by ImageJ. […]

B1: rhNRG1: EGF domain containing 7 kDa protein of recombinant human Neuregulin 1, purchased from Reprokine (#RKQ02297) (protein, listed as Homo sapiens)
chain: SHLVKCAEKEKTFCVNGGECFMVKDLSNPSRYLCKCPNEFTGDRCQNYVMASFYKHLGIEF
21.5-kDa MBP isoform expression (immunoblot) ([1]; KO rhNRG1): strong up-regulation | myelin protein zero (MPZ) expression (immunoblot) ([1]; KO rhNRG1, 3 months of treatment, vs wildtype): reduced expression | 17 kDa myelin basic protein (MBP) isoform expression (immunoblot) ([1]; KO rhNRG1 vs wildtype littermates): remarkable reduced expression | c-Jun levels (marker for undifferentiated Schwann cells) ([1]; knockout animals, systemic rhNRG1 injections): reduced | ErbB2 expression (immunoblot) ([1]; rhNRG1-treated knockout mice, high in vehicle-treated knockout): normal expression | macrophage number in nerve tissue (Iba-1 immunoblot) ([1]; systemic rhNRG1 treatment): not influenced | functional recovery after sciatic nerve crush (SFMA) ([2]; Nf2flox;P0-Cre;Nefh-Cre mutant mice, intraperitoneal injections every other day, vs no treatment or saline): significantly improved recovery | functional regeneration after sciatic nerve crush (SFMA) ([2]; Nf2flox;P0-Cre;Nefh-Cre mutant mice, local administration with absorbable collagen sponges, vs control treatment): able to increase functional regeneration | functional recovery after sciatic nerve crush (SFMA) ([2]; wildtype animals, systemic rhNRG1, 8 weeks): does not enhance regeneration | tolerability ([3]; 10 μg/kg, Nf2flox;P0-Cre;Nefh-Cre animals): well tolerated | significant decline in body weight ([3]; systemic treatment at chosen dosage (10 μg/kg ip every other day), weighed weekly over 13 weeks): not observed | ErbB2 expression (immunoblot) [4]: reduced | myelin protein zero (MPZ) expression (immunoblot) [4]: increased
